Measurements taken from the supplement of paper PMC10567573.

B1: ESRRA (parent)
chain: SLPLQDELAFAEDLVLDEEGARAA
B2: KLHDC10 (parent)
chain: CPIIRIPNRFLRGHRPPPARSGHR

Variants of: B1
Experiment: protein stability index of a GFP-peptide fusion (GPS, HEK-293T) (PSI 1-6); higher = more stable
Details: c terminus: a fixed tail appended
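Further: lentivirally expressed fusions sorted by FACS into six bins by GFP to DsRed ratio, PSI derived from sequencing read proportions per bin multiplied by bin number.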

Protein stability index of substitutions, site by site:
G20: P 3.7; R 3.38; F 3.47; Y 2.44; V 4; T 4.05; N 3.52; H 2.9; I 3.08; E 5.11; M 2.51; A 4.48; K 3.4; D 3.46; L 3.04; W 2.67; Q 3.93; C 2.6; S 4.04
A23: S 3.42; C 2.98; W 2.44; G 4.15; I 2.87; P 3.35; V 3.21; Q 3.19; D 3.39; Y 2.62; R 2.83; K 2.65; F 2.89; N 3.21; L 2.56; E 3.66; H 2.95; T 3.08; M 2.43
E18: N 3.68; R 4.03; F 3.24; I 3.81; T 2.79; P 2.56; Y 2.99; H 2.56; S 2.85; A 2.7; K 4.48; W 2.49; V 3.6; D 4.8; G 2.93; L 3.11; Q 2.8; C 2.31; M 2.42
A21: P 3.14; C 3.01; T 3.75; W 3.2; H 3.09; Y 2.63; L 3.63; R 3.41; K 2.66; I 2.87; E 3.38; V 3.14; M 3.61; G 2.77; N 2.91; Q 2.29; S 4.05; F 3.5; D 3.81
E19: I 1.74; W 2.52; Y 2.77; F 2.25; R 2.02; Q 2.56; A 1.86; C 2.79; T 2.71; S 2.79; V 2.83; P 4.02; L 2.15; M 1.85; N 2.63; D 2.79; G 1.75; H 2.33; K 2.89
D17: V 3.19; W 2.62; Y 2.5
A24: Q 3.05; G 3.22; W 2.74; H 3.66; C 2.94; D 3.71; S 2.82; E 3.5; T 3.94; Y 3; R 2.8; L 2.75; V 3.06; I 2.92; M 2.97; N 2.28; K 2.96; P 3.21; F 2.14
R22: N 3.36; L 3.73; V 3.69; P 3.01; F 3.24; I 2.94; G 3.13; K 3.12; W 2.53; D 4.19; M 3.42; A 3.35; C 3.2; E 4.36; T 4.45; Q 3.45; H 3.65; Y 3.01; S 3.62

Variants of: B2
Experiment: as above
Details: c terminus: a fixed tail appended

Protein stability index: each site, then its substitutions
P18: H 2.37; N 2.43; D 1.49; Q 1.78; S 2.37; I 2.17; T 1.92; L 1.47; E 1.78; K 2.5; A 1.51; W 1.85; Y 1.91
I3: M 2.09; R 2.62; N 3.74; F 1.47; C 1.78; D 2.16; L 2.15
P17: Q 1.57; D 1.63; Y 2.55; G 2.09; V 3.32; M 1.8; N 2.2; A 2.28; E 1.93; I 1.93; T 1.64; R 2.34
G13: I 2.04; T 2.65; N 2.2; K 1.9; W 2
R20: W 1.75; L 2.45; A 2.48; Q 1.93; G 1.95; D 2.73
S21: D 1.75; H 1.75; K 1.65; N 2.25; M 1.66; P 1.94; V 1.62
R9: P 3.47; G 1.53; T 1.46; D 2.1
G22: T 2.39; F 2.01; A 1.57; R 2.17
A19: M 2.12; F 1.69; S 1.8; D 2.95; W 1.69; N 2.23; H 3.04; I 1.4
R5: Y 2.51; F 2.62; H 3.85; K 3.59; T 3.81; P 3.89; D 4.21; G 3.42; L 1.55; N 4.4; Q 3.54; E 5.03; V 2.6
H23: F 1.52; P 1.67; E 1.66; A 1.85; R 1.67; G 2.02; D 1.38; W 1.59; I 1.82
R15: L 1.05; Y 1.51; N 2.3; W 1.47; M 1.84; E 1.92; Q 2.44
I6: W 4.13; Q 2.77; H 4.75; D 4.25; C 2.4; V 2.77; F 4.26
C1: W 1.59; A 4.28; K 3.56; T 3.29; E 3.76; F 2.15; M 3.21; P 3.87; N 3.73; H 2.91; D 2.89; Y 1.97
R12: W 2.5; A 1.71; N 2.27; T 2.02; M 1.06; Y 2.43; F 1.75; L 2.25; G 1.8; S 1.9
N8: Q 1.3; W 2.59; D 2.15; S 2.44; H 2.69; G 1.38; C 1.94; E 2.15
R24: S 2.03; V 2.54; E 1.59; D 2.93; I 2.99; C 1.82; F 1.31; H 2.01; K 1.29; G 2.1; L 2.61
P16: C 2.5; M 2.33; E 1.92; K 3.27; Q 2.1; F 1.9; D 1.72; S 2.12; G 1.42; Y 1.31
F10: P 1.45; Y 1.8; Q 2.63; T 2.11; S 2.12; L 2.48; W 2.38; K 1.71; G 1.81
P2: D 2.32; S 1.31; G 2.41
H14: R 1.76; N 1.89; L 1.32; F 1.83; W 2.89; V 2.46; P 2.15; Y 1.33
L11: F 1.84; D 1.42; R 2.54; H 1.69; S 2.46; T 1.96
P7: V 1.86; G 3.71; E 1.57; Q 3.04; K 2.7; T 2.23; R 3.66; D 2.91; F 2.28; M 3.29; C 1.89
I4: V 2.42; K 3.06; F 2.46; W 3.12; T 3.23; S 3.22; R 4.37; G 3.77
